Measurements from US20180214548A1 (SHANGHAI YUNYI HEALTHCARE AND TECHNOLOGY, published 2018).

What was measured:
[1] = target: T1, human PD-1^ECD-hFc protein (Immunogen A) (human, UniProt Q15116 25-167); test: ELISA, coated human PD-1ECD-hFc; antibody 0.0001 nM
T1 construct: Biotinylated for the Octet assay; also called PD-1-hFc; hPD-1^ECD-hFc; not shown: human IgG Fc fragment (hFc)
Method: (§1) 100 uL of the diluted recombinant proteins were added to each well of 96-well plate. The plates were sealed with plastic film and incubated at 4° C. overnight. The plates were washed twice with wash buffer (PBS+0.01% (v/v) Tween20), and incubated with blocking buffer (PBS+0.01% (v/v) Tween20+1% (w/w) BSA) at room temperature for 2 hours. The blocking buffer was aspirated away, and 100 uL of purified anti-PD-1 antibodies were added to each well and incubated for 2 hours at 37° C. The plates were washed three times with wash buffer (PBS+0.01% (v/v) Tween20). HRP-conjugated secondary antibody (Sigma) was added to each well and incubated for 2 hours at 37° C. After the plates were washed three times with wash buffer, 100 uL TMB substrate was added to each well and incubated for 30 minutes at room temperature. 100 uL stop solution (0.1N HCl) was added to each well to stop the reaction. The absorbance at 450 nm was measured with an ELISA plate reader (384plus SpectraMax, Molecular Devices).

[2] = target: T1, human PD-1^ECD-hFc protein (Immunogen A); test: ELISA, coated human PD-1ECD-hFc; antibody 10 nM
Method: as §1

[3] = target: T1, human PD-1^ECD-hFc protein (Immunogen A); test: ELISA, coated human PD-1ECD-hFc; antibody 0.00001 nM
Method: as §1

[4] = target: T2, full length human PD-1 on cells (human, UniProt Q15116 25-288); test: flow cytometry, CHO-K1-hPD-1 cells; antibody 10 nM
T2 construct: Also used here for PD-1 on human T cells/PBMC; also called CHO-K1-hPD-1; hPD-1
T2 sequence (Q15116 25-288 limits assumed): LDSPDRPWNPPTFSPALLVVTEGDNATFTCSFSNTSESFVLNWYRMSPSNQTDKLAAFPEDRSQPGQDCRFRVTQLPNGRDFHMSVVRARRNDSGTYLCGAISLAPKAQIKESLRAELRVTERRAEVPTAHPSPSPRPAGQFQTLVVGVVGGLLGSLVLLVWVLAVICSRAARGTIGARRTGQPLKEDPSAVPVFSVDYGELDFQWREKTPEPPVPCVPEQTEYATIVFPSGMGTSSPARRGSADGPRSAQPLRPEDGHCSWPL
Excerpt: (§2) CHO-K1 cells were stably transfected with pIRES plasmid containing the nucleic acid sequence encoding full length human PD-1 (see Example 2, step 2) to generate CHO-K1 cells stably expressing human PD-1 (herein referred to as CHO-K1-hPD-1 cells). Other CHO-K1 were stably transfected with pIRES plasmid containing the nucleic acid sequence encoding full length cyno PD-1 to generate CHO-K1 cells stably expressing cyno PD-1 (herein referred to as CHO-K1-cPD-1 cells). CHO-K1-hPD-1 and CHO-K1-cPD-1 cells were cultured and expanded in T-75 culture flasks to 90% confluence. The culture media was aspirated, and the cells were washed twice with HBSS (Hanks Balanced Salt Solution, Invitrogen). The cells were treated with enzyme-free cell dissociation solution (Versene solution, Invitrogen) and collected. The cells were then washed twice with HBSS, cell counts were determined, and cells were resuspended with HBSS at 2×10⁶ cells/mL. Goat serum was added to the cell suspension to a final concentration of 1%, and the cells were blocked for 30 minutes on ice and then washed twice with HBSS. The cells were collected after centrifugation and resuspended in FACS buffer (HBSS+1% BSA, v/v) at 2×10⁶ cells/mL. 100 uL of the cell suspension were then added to each well of 96-well plate. 100 uL of purified anti-PD-1 antibodies from Example 2 were added to each well of the 96-well plate and incubated for 2 hours on ice. […] The samples were washed three times with FACS buffer, and 100 uL fixation buffer (4% paraformaldehyde v/v) were added to each well and incubated for 10 minutes. The cells were then washed twice with FACS buffer and resuspended in 100 uL FACS buffer. The mean fluorescence intensity (MFI) was determined using FACS Calibur (BD), and the results are shown in FIGS. 7-8 and in Tables 10-11.

[5] = target: T1, human PD-1^ECD-hFc protein (Immunogen A); test: ELISA, coated human PD-1ECD-hFc; antibody 0.1 nM
Method: as §1

[6] = target: T2, full length human PD-1 on cells; test: flow cytometry, CHO-K1-hPD-1 cells; antibody 100 nM
Excerpt: as §2

[7] = target: T2, full length human PD-1 on cells; test: flow cytometry, CHO-K1-hPD-1 cells; antibody 0.316 nM
Excerpt: as §2

[8] = target: T2, full length human PD-1 on cells; test: flow cytometry, CHO-K1-hPD-1 cells; antibody 0.0316 nM
Excerpt: as §2

[9] = target: T1, human PD-1^ECD-hFc protein (Immunogen A); test: ELISA, coated human PD-1ECD-hFc; antibody 0.01 nM
Method: as §1

[10] = target: T1, human PD-1^ECD-hFc protein (Immunogen A); test: ELISA, coated human PD-1ECD-hFc; antibody 1 nM
Method: as §1

[11] = target: T2, full length human PD-1 on cells; test: flow cytometry, CHO-K1-hPD-1 cells; antibody 1 nM
Excerpt: as §2

[12] = target: T1, human PD-1^ECD-hFc protein (Immunogen A); test: ELISA, coated human PD-1ECD-hFc; antibody 100 nM
Method: as §1

[13] = target: T2, full length human PD-1 on cells; test: flow cytometry, CHO-K1-hPD-1 cells; antibody 31.6 nM
Excerpt: as §2

[14] = target: T2, full length human PD-1 on cells; test: flow cytometry, CHO-K1-hPD-1 cells; antibody 0.1 nM
Excerpt: as §2

[15] = target: T1, human PD-1^ECD-hFc protein (Immunogen A); test: ELISA, coated human PD-1ECD-hFc; antibody 0.001 nM
Method: as §1

[16] = target: T2, full length human PD-1 on cells; test: flow cytometry, CHO-K1-hPD-1 cells; antibody 3.16 nM
Excerpt: as §2

T1 sequence (Q15116 25-167): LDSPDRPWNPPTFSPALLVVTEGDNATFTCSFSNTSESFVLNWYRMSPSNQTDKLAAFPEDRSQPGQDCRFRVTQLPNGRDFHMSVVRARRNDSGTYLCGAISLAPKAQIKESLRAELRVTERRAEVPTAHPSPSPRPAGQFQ

Row | Binder | OD450 nm [1] | OD450 nm [2] | OD450 nm [3] | Mean fluorescence intensity [4] | OD450 nm [5] | Mean fluorescence intensity [6] | Mean fluorescence intensity [7] | Mean fluorescence intensity [8] | OD450 nm [9] | OD450 nm [10] | Mean fluorescence intensity [11] | OD450 nm [12] | Mean fluorescence intensity [13] | Mean fluorescence intensity [14] | OD450 nm [15] | Mean fluorescence intensity [16]
1 | chimeric anti-PD-1 antibody 226C3A7 (antibody, V domains shown, Purified from hybridoma of Harbour H2L2 mice: human variable regions, rat constant regions) VH: QVQLQQSGPGLVNPSQTLSLTCAISGDSVSSNSGAWNWIRQSPSRGLEWLGRTYYRSKWYNDYGISVQSRITINPDTSKNHFSLQLNSVTPEDTAVYYCARDPYYYGSGSYFDYWGQGTLVTVSS VL: EIVMTQSPATLSVSPGERVTLSCRASLSVNSNLAWYQQKPGQAPRLLIYDTSTRATGVPARFSGSGSGTEFTLTISSLQSEDFAVYYCQQYHYWPLTFGGGTKVEIK | 0.4 | 2.86 | 0.39 | 203 | 2.54 | 825 | 3.4 | 4.1 | 0.9 | 2.86 | 5.2 | 2.83 | 826 | 3.2 | 0.45 | 22.9
2 | chimeric anti-PD-1 antibody 204C5E12 (antibody, V domains shown, Purified from hybridoma of Harbour H2L2 mice: human variable regions, rat constant regions) VH: QVQLVESGGGVVQPGRSLRLSCAASGFSFSYYGMHWVRQAPGKGLEWVAVIWYDGSNKYYADSVKGRFTISRDNSKNTLYLQMNSLRAEDTAVYYCASGITLVRGADYYYNYDMDVWGQGTTVTVSS VL: not shown | 0.43 | 2.84 | 0.43 | 160 | 2.13 | 1490 | 3 | 3 | 0.68 | 2.87 | 5 | 2.77 | 986 | 2.9 | 0.48 | 21.4
